In the RNAGym collection of RNA variant scans (doi:10.7554/elife.80360) one finds self-cleavage data, which are given here for 167 variants.

The labels stand for the following.
B1: CPEB3 Ribozyme (parent)
chain: GGGGGCCACAGCAGAAGCGUUCACGUCGCGGCCCCUGUCAGAUUCUGGUGAAUCUGCGAAUUCUGCUGU

The variants in this data set derive from B1. In words: self-cleavage, relative activity (ratio to wild type); higher = more cleavage; co-transcriptional.
C9G U53G: the self-cleavage was determined as 0.961.
The value for C9G U53C was 0.956; that for C9U C39A was 0.912.
For C9U C39G, the self-cleavage came out at 0.962.
Take C9U C35G: the self-cleavage is 0.76.
The value for C9U C35A was 0.342; that for C9U C35U was 0.982.
Under C9A C39A stands 0.942; under C9A C39G, 1.
The value for A10C A13C was 0.638.
Regarding A10C A13U, the self-cleavage worked out at 0.484.
As to A10C A13G, the self-cleavage was found to be 0.911.
C9A U55A: the self-cleavage came out at 0.981.
As to C9A U44C, the self-cleavage worked out at 1.02.
C9A U44A: the self-cleavage was 0.998.
In the case of C9A C29G, the self-cleavage came out at 0.854.
The value for C9U A15C was 0.989; that for C9A G30U was 0.846.
Under C9A G30C stands 0.953; under C9A G30A, 1.01.
Under C9A A42C stands 0.999.
Turning to C9U G11A, the self-cleavage stood at 0.971.
Under C9U G11C stands 0.927; under C9G C33G, 0.925.
The value for C9G C33U was 1.04; that for C9A G58A was 1.02; that for C9U A52C was 1.01.
The value for C9U A52U was 0.996; that for C9G C32U was 0.992.
As for C9G C32A, the self-cleavage is 0.983.
For the variant C9G C32G, the self-cleavage is 0.665.
The value for C9U C33A was 0.994; that for C9U C33U was 0.996; that for C9G C35U was 0.964.
The value for C9G C35G was 0.758; that for C9G U20A was 0.0617; that for C9G U20G was 0.212.
The value for C9A G48C was 1.02.
On to C9A G48U, for which the self-cleavage was found to be 1.03.
Under C9A G17A stands 0.707.
The value for C9A G17U was 0.622.
The value for C9G U67C was 0.976; that for C9G U67G was 1.05; that for C9U U36G was 0.214.
For C9U U43C, the self-cleavage was 1.02.
Under C9U U43A stands 0.971.
Under C9U A42U stands 0.997; under C9U A42C, 1.03; under C9U A42G, 0.96.
The value for C9U G31U was 0.977.
As for C9U G31C, the self-cleavage is 0.38.
Under C9U G31A stands 1; under C9G G11A, 0.882; under C9U G25C, 0.146.
Under C9U G25U stands 0.192.
For C9G G31C, the self-cleavage was determined as 0.363.
The value for C9G G31U was 0.97; that for C9A U69G was 1.07; that for C9A U69C was 1.08.
Under C9G U64A stands 0.884; under C9G U64C, 0.864; under C9U A10U, 0.987.
Regarding C9U A10G, the self-cleavage is 1.04.
The value for C9U A10C was 1.06; that for C9G G50C was 1.01; that for C9A U62A was 1.01.
Regarding C9U C29A, the self-cleavage turned out to be 0.922.
The value for C9U C29G was 0.923; that for C9G G19A was 0.106.
The value for C9G A59G was 0.997.
The value for C9G A59U was 0.936; that for C9U U44A was 1.02.
Take C9U U44C: the self-cleavage amounted to 0.997.
Under C9U U26C stands 0.999; under C9G U21A, 0.998.
Under C9G U21C stands 0.943; under C9G U21G, 0.696.
The value for C9A C57U was 0.423; that for C9A C57G was 0.366; that for C9A C57A was 0.37.
For the variant C9U G47A, the self-cleavage turned out to be 1.06.
As to C9G C66G, the self-cleavage came out at 0.905.
As for C9G C66U, the self-cleavage is 0.967.
Under C9A U49C stands 0.989; under C9U G65C, 0.802; under C9U G65U, 0.845.
As to C9A G28U, the self-cleavage was found to be 0.187.
The value for C9A G28C was 0.196.
As for C9G U69A, the self-cleavage was 1.04.
Under C9G U69G stands 1.05; under C9U C18A, 0.355.
Under C9U C18G stands 0.283; under C9U C18U, 0.927.
Under C9A U38C stands 1.03.
Turning to C9A C33G, the self-cleavage came to 0.962.
Under C9A C33A stands 0.993; under C9A C33U, 1.03; under C9A U46A, 1.02.
Regarding C9A U46C, the self-cleavage turned out to be 0.996.
Regarding C9U A13C, the self-cleavage was 0.925.
Under C9U A13U stands 0.966; under C9U C22U, 0.403; under C9G G65U, 0.65.
Under C9G G65A stands 0.968; under C9G G65C, 0.585; under C9U U64G, 0.981.
The value for C9U U64C was 0.999; that for C9U U64A was 1.04.
On to C9G U26C, for which the self-cleavage was determined as 0.964.
C9G U26G: the self-cleavage is 0.93.
Under C9G U26A stands 0.912; under C9U U38A, 0.931; under C9U U38G, 0.306.
Under C9U U38C stands 1.02.
Under C9G U36G stands 0.245.
C9G U36C: the self-cleavage came out at 1.02.
Under C9U C34G stands 1.01.
In the case of C9U C34A, the self-cleavage stood at 1.01.
Under C9G A10U stands 0.987; under C9G A10G, 1.
Under C9G A10C stands 0.634; under C9U U62G, 0.987.
The value for C9A U64A was 0.94; that for C9A U64G was 0.951; that for C9A U64C was 0.938.
Take C9G G58C: the self-cleavage worked out at 0.984.
The value for C9G G58U was 1.04; that for C9G G68U was 1.02.
Under C9G G68C stands 0.997; under C9G G68A, 1.05.
The value for C9U A40U was 0.915.
Regarding C9U A40G, the self-cleavage is 1.03.
The value for C9U U53G was 0.984.
Under C9U U53A stands 0.961.
The value for C9A U26A was 0.946.
Turning to C9A U26C, the self-cleavage came to 0.983.
As to C9G G47C, the self-cleavage came out at 1.01.
The value for C9A A51C was 1.03; that for C9A A51G was 1.03.
The value for C9A A51U was 1.04; that for C9G U61A was 1.01.
The value for C9G U61C was 0.83; that for C9G C34G was 0.994; that for C9U C27A was 0.891.
As to C9U C27U, the self-cleavage came to 0.788.
Under C9A C27U stands 0.695; under C9A C27G, 0.256.
Under C9A G14C stands 0.513.
Take C9A G19A: the self-cleavage came to 0.129.
The value for C9A G19C was 0.111; that for C9A G19U was 0.609; that for C9A U67G was 1.05.
Under C9A U67C stands 1; under C9A C54G, 1.01.
Under C9A C54A stands 1; under C9A C54U, 1.03; under C9A G56A, 1.02.
In the case of C9U C24U, the self-cleavage came out at 0.888.
On to C9U C24G, for which the self-cleavage turned out to be 0.535.
The value for C9U C24A was 0.827; that for C9G G48C was 0.99.
The value for C9G G48A was 1.01.
Turning to C9U C63U, the self-cleavage is 0.982.
Under C9U C63A stands 0.968; under C9U C63G, 0.88.
Regarding C9A G41C, the self-cleavage was determined as 0.906.
Take C9A G41A: the self-cleavage came to 0.988.
